Measured values as given in publication PMC2777315 (PLoS Pathogens, 2009).

T1: GST-IlsA fusion protein (IlsA, iron-regulated leucine-rich surface protein of Bacillus cereus ATCC 14579) (Bacillus cereus ATCC 14579, UniProt Q81G77 1-760)
T1 construct: also called IlsA-GST; purified IlsA; source: E. coli BL-21, purified (pellet solubilised in 8 M urea, dialysed, glutathione Sepharose 4B)
T1 sequence: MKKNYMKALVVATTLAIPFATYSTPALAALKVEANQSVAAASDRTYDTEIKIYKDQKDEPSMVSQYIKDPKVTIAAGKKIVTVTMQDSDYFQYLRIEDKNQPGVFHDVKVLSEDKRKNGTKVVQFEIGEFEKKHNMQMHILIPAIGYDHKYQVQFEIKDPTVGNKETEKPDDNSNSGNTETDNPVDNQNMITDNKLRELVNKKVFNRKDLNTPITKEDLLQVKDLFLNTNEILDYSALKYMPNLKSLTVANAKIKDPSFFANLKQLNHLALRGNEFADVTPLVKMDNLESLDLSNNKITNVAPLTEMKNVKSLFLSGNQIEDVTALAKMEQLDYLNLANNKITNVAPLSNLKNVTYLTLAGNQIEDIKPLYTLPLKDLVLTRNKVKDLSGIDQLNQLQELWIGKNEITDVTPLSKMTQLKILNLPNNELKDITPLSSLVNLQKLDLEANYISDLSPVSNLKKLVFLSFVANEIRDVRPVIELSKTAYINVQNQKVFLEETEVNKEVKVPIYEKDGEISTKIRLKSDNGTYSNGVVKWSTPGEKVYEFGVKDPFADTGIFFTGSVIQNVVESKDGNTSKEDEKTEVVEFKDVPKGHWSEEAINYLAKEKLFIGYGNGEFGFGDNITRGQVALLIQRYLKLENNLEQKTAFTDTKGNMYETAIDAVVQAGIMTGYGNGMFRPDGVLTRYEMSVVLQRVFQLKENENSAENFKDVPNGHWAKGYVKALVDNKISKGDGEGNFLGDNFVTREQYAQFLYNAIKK

B1: hemoglobin (complex)
chain 1: not shown
chain 2: not shown
B2: ferritin (complex)
chain 1: MSSQIRQNYSTEVEAAVNRLVNLYLRASYTYLSLGFYFDRDDVALEGVCHFFRELAEEKREGAERLLKMQNQRGGRALFQDLQKPSQDEWGTTLDAMKAAIVLEKSLNQALLDLHALGSAQADPHLCDFLESHFLDEEVKLIKKMGDHLTNIQRLVGSQAGLGEYLFERLTLKHD
chain 2: MTTAFPSQVRQNYHQDSEAAINRQINLELHASYVYLSMSFYFDRDDVALKNFAKYFLHQSHEEREHAEKLMKLQNQRGGRIFLQDIKKPDQDDWENGLKAMECALHLEKNVNESLLELHKLATDKNDPHLCDFLETHYLNEQVKAIKELGDHVTNLRRMGAPESGMAEYLFDKHTLGECDES
notes: source: bought: Sigma-Aldrich

Tests used:
Details in all cases: both partners purified
[1] = molecular target: T1, GST-IlsA fusion protein (IlsA, …); assay: ELISA; hemoglobin or ferritin coated on plates in increasing amounts (0-180 nM), 0.1 M phosphate buffer pH 7.4; IlsA added at 30 nM, 2 h at 37°C; detected with polyclonal anti-IlsA; Kd estimated with Origin
[2] = molecular target: T1, GST-IlsA fusion protein (IlsA, …); assay: SPR; BIAcore 3000; GST-IlsA captured by anti-GST antibody on a CM5 chip; ligands injected at 200 nM for 8 min, dissociation 10 min; 0.1 M phosphate buffer pH 7.4; 20°C; data did not fit a 1:1 model, indicative koff from the dissociation phase only
[3] = molecular target: T1, GST-IlsA fusion protein (IlsA, …); assay: SPR
[4] = molecular target: T1, GST-IlsA fusion protein (IlsA, …); assay: ELISA

Binder	Kd [1] [nM]	koff [2] [s⁻¹]	koff [3] [s⁻¹]	Kd [4] [nM]
B1	3 ± 1	0.00148		
B2			0.00171	10 ± 3
